Results on five molecules are retold here after PMC3485190, “Crystal Structures of Lysine-Preferred Racemases, the Non-Antibiotic Selectable Markers for Transgenic Plants” (PLoS ONE, 2012).

One series has as its system T1, NCCCC[C@H](N)C(=O)O.
T1 construct: homodimer; first 25 residues (signal peptide) removed by auto-cleavage
In words: steady-state racemization, chiral HPLC. The series is classed as biochemical, Pseudomonas putida. As to conditions: 100 mM CHES-NaOH pH 9.0, 30 µM PLP, 50°C. An excerpt: steady-state racemization, chiral HPLC on Bar (broad-specificity amino acid racemase)

Series [1] addresses T2, Bar (broad-specificity amino acid racemase) (Pseudomonas putida, UniProt I6LNY0).
T2 construct: homodimer; first 25 residues (signal peptide) removed by auto-cleavage
T2 sequence (I6LNY0 26-409): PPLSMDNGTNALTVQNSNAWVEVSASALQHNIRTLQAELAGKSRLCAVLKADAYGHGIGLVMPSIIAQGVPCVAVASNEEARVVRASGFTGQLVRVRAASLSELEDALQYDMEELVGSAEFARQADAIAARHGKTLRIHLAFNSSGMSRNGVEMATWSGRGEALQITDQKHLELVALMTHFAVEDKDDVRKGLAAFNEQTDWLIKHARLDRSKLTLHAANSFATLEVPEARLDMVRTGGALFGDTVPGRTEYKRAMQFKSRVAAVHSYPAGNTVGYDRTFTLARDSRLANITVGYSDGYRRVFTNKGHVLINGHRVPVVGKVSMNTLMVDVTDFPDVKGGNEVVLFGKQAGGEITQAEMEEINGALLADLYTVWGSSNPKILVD
Description: X-ray crystallography, […] Å. As to conditions: covalent, internal aldimine with Lys75; pH 8.5. The format is binding.

For series [2], the target named is T2, Bar (broad-specificity amino acid racemase). Description: X-ray crystallography, […] Å. The format is binding. As to conditions: co-crystallized with 4 mM L-lysine, pH 9.0; covalent external aldimine with PLP.
Substrate in series [3]: N=C(N)NCCC[C@H](N)C(=O)O
In words: steady-state racemization, chiral HPLC. As to conditions: 100 mM CHES-NaOH pH 9.0, 30 µM PLP, 50°C. The series is classed as biochemical, Proteus mirabilis. The text has this: (§1) steady-state racemization, chiral HPLC on Lyr (lysine racemase)

Substrate in series [4]: NCCCC[C@H](N)C(=O)O
Description: steady-state racemization, chiral HPLC. The format is biochemical, Proteus mirabilis. As to conditions: 100 mM CHES-NaOH pH 9.0, 30 µM PLP, 50°C.
Description: as §1

Series [5] concerns the molecule itself. In words: crystal structure; Lyr (2.5 mg/ml), sitting-drop vapor diffusion at 20°C, 0.1 M sodium acetate pH 4.6, 0.05 M lithium chloride, 29% PEG 8000; space group C222(1), one molecule per asymmetric unit, dimer by a crystallographic two-fold axis; 1.74 Å.
Series [6] deals with the molecule itself. Description: crystal structure; apo Bar (4.7 mg/ml in 10% glycerol), sitting-drop vapor diffusion at 20°C, 0.1 M Tris-HCl pH 8.5, 2.0 M ammonium sulfate; space group C2, two molecules per asymmetric unit; 2.45 Å.

Consider “Bar (broad-specificity amino acid racemase) (Pseudomonas putida; A393Y)”, for which, in the series with NCCCC[C@H](N)C(=O)O, the Km was found to be 33.9 ± 3.5 mM, the kcat is 24.3 ± 2.18 s⁻¹ and the kcat/Km was found to be 715 M⁻¹ s⁻¹.
On to `Cc1ncc(COP(=O)(O)O)c(C=O)c1O` [PLP], for which the “X-ray crystallography, 2.45 Å” value in series [1] was “fit with an aldimine bond between the Lys75 Nζ and the PLP C4A”.
Consider `NCCCC[C@H](N)C(=O)O` [L-Lys], for which the “X-ray crystallography, 3.10 Å” value in series [2] was “The complex-Bar structure was established (Figure 7A, B) by co-crystallizing Bar with L-lysine”.

B1: Lysine racemase (Lyr) from Proteus mirabilis BCRC10725 (enzyme)
chain: CQQPVNYNPPATQVAQVQPAIVNNSWIEISRSALDFNVKKVQSLLGKQSSLCAVLKGDAYGHDLSLVAPIMIENNVKCIGVTNNQELKEVRDLGFKGRLMRVRNATEQEMAQATNYNVEELIGDLDMAKRLDAIAKQQNKVIPIHLALNSGGMSRNGLEVDNKSGLEKAKQISQLANLKVVGIMSHYPEEDANKVREDLARFKQQSQQVLEVMGLERNNVTLHMANTFATITVPESWLDMVRVGGIFYGDTIASTDYKRVMTFKSNIASINYYPKGNTVGYDRTYTLKRDSVLANIPVGYADGYRRVFSNAGHALIAGQRVPVLGKTSMNTVIVDITSLNNIKPGDEVVFFGKQGNSEITAEEIEDISGALFTEMSILWGATNQRVLVD
notes: also called wild-type Lyr
With B1, in series [3], the Km amounted to 14.9 ± 1.0 mM, the kcat turned out to be 10.8 ± 0.583 s⁻¹ and the specificity constant (kcat/Km) was 727 M⁻¹ s⁻¹. In series [4], the Km was 21.8 ± 0.5 mM, the kcat came to 55.4 ± 1.13 s⁻¹ and the catalytic efficiency (kcat/Km) turned out to be 2540 M⁻¹ s⁻¹. The “stoichiometry N” value in series [5] turned out to be 2.

B2: Broad-specificity amino acid racemase (Bar) from Pseudomonas putida DSM84 (enzyme, UniProt I6LNY0 26-409, looked up)
chain: PPLSMDNGTNALTVQNSNAWVEVSASALQHNIRTLQAELAGKSRLCAVLKADAYGHGIGLVMPSIIAQGVPCVAVASNEEARVVRASGFTGQLVRVRAASLSELEDALQYDMEELVGSAEFARQADAIAARHGKTLRIHLAFNSSGMSRNGVEMATWSGRGEALQITDQKHLELVALMTHFAVEDKDDVRKGLAAFNEQTDWLIKHARLDRSKLTLHAANSFATLEVPEARLDMVRTGGALFGDTVPGRTEYKRAMQFKSRVAAVHSYPAGNTVGYDRTFTLARDSRLANITVGYSDGYRRVFTNKGHVLINGHRVPVVGKVSMNTLMVDVTDFPDVKGGNEVVLFGKQAGGEITQAEMEEINGALLADLYTVWGSSNPKILVD
modifications: PLP bound to Lys75 by an internal aldimine bond (apo crystal); in the crystal with L-lysine PLP forms the external aldimine with the substrate
notes: Broad-specificity amino acid racemase (Bar, E.C. 5.1.1.10), Pseudomonas putida DSM84, gene bar amplified from chromosomal DNA into pET21a; the first 25 residues contained the signal peptide and were removed by auto-cleavage; Head-to-tail homodimer in the crystal (two molecules in the asymmetric unit); also called wild-type Bar; complex-Bar (with L-lysine)
Regarding B2, in series [6], the “stoichiometry N” value came to 2.

The Km is the substrate concentration at which the rate is half of its maximum. In general, kcat refers to the number of substrate molecules converted per active site and unit of time at saturation. One may read the kcat/Km as the second-order rate constant that governs catalysis at low substrate concentration. What is called stoichiometry N is a count of units in the complex or per binding partner.
